Values joined by “and” are separate entries in the source; they are usually repeats but may differ in a detail not shown here. Equal values may be shown once. ± gives the standard deviation of the averaged measurements.
Columns and labels:
Saccharomyces cerevisiae [1] = test: protein stability index of tFT-peptide fusion in wild type (PSI (0-1 scale)); higher = more stable (slower turnover); details: genetic background: wild type
Description: (§1)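 MPS profiling in S. cerevisiae of two library types built from selected 12-aa C-degron peptides (IN1, IN2, LN1, LN3, VN2, R1-R5, W1-W3, Atg1 and Rpa12 C-termini): saturation mutagenesis libraries and C-terminal +1 capping libraries (13 aa). Each peptide is fused to the C-terminus of a sfGFP-mCherry timer, after a GGGS linker. Cells are FACS-sorted into 8 mCherry/sfGFP bins and sequenced. PSI runs from 0 (unstable) to 1 (stable), measured once in wild type and in the das1Δ or doa10Δ background.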

Saccharomyces cerevisiae [2] = test: protein stability index of tFT-peptide fusion in deletion strain of DOA10 (PSI (0-1 scale)); higher = more stable (slower turnover)
Description: as §1

Saccharomyces cerevisiae [3] = test: protein stability index of tFT-peptide fusion in deletion strain of DAS1 (PSI (0-1 scale)); higher = more stable (slower turnover)
Description: as §1

Saccharomyces cerevisiae [4] = test: protein stability index of tFT-peptide fusion (C-terminal peptide) (PSI (0-1 scale)); higher = more stable (slower turnover); details: genetic background: wild type; temperature: 30 C
Saccharomyces cerevisiae [5] = test: as above
Description: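 MPS profiling in S. cerevisiae of the tFT-X12 degron library: putative degron peptides plus stable controls, 12 aa, fused to the C-terminus of a sfGFP-mCherry timer. Cells are FACS-sorted into 8 mCherry/sfGFP bins and deep-sequenced. PSI runs from 0 (unstable) to 1 (stable). Backgrounds are wild type, das1Δ and doa10Δ at 30 °C, and wild type, das1Δ, cdc34-1 and cdc53-1 at 37 °C; 2-3 technical replicates each.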
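Throughout, for protein stability index of tFT-peptide fusion (C-terminal peptide): PSI is a weighted mean of sequencing reads over stability bins, variants kept only with over 10 reads, mCherry proximal and sfGFP distal, peptide attached via GGGS linker.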
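Throughout, for protein stability index of tFT-peptide fusion in deletion strain of DAS1: PSI is a weighted mean of each variant's read distribution over the sorted stability bins, computed only for variants having over 10 reads in total.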
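Throughout, for protein stability index of tFT-peptide fusion in deletion strain of DOA10: PSI per variant is the weighted mean of its sequencing read distribution over the sorted stability bins, counting only variants with over 10 reads summed across bins.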
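Throughout, for protein stability index of tFT-peptide fusion in wild type: PSI derived as read-weighted mean over the 8 sorting bins, only variants exceeding 10 total reads kept, mCherry placed adjacent to the peptide and sfGFP distal.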

Sequence	protein stability index (Saccharomyces cerevisiae [1])	protein stability index (Saccharomyces cerevisiae [3])	further results
CLVSLPILLFFM	0.299	–	protein stability index (Saccharomyces cerevisiae [2]): 0.479
CLVSLPILPFFR	0.0842	–	protein stability index (Saccharomyces cerevisiae [2]): 0.679
CLVSLPILLKFR	0.178	–	protein stability index (Saccharomyces cerevisiae [2]): 0.652
RSLRVLNPLYFR	0.359	–	protein stability index (Saccharomyces cerevisiae [2]): 0.684
GMYMCSVGCWFR	0.271	–	protein stability index (Saccharomyces cerevisiae [2]): 0.713
GLMMCSVGCWFR	0.237	–	protein stability index (Saccharomyces cerevisiae [2]): 0.506
RSLRVTLPLYFR	0.159	–	protein stability index (Saccharomyces cerevisiae [2]): 0.676
RSLRVSLPLYFR	0.15	–	protein stability index (Saccharomyces cerevisiae [2]): 0.687
RVIRLDAIYFRI	0.331	–	protein stability index (Saccharomyces cerevisiae [2]): 0.653
PSLAASMWRVVG	0.147	0.73	–
ARWRVKLWRGAS	0.357	0.684	–
VRGAVGGWRLVGS	0.174	0.67	–
LKILRQKMNHQC	0.184	0.635	–
VRGAVGGWRFVG	0.142	0.674	–
LKILRQKMYHQN	0.249	0.658	–
RLIQPRPVQFLN	0.0515	0.613	–
LKILDQKMNHQN	0.648	0.691	–
CTSCGYKFRGNN	0.682	0.686	–
KKHKKGQKVKIN	0.225	0.615	–
CTSCGYKFRTNNR	0.707	0.705	–
PSLAASFWRVVGF	0.692	0.693	–
LVVYLSCVLCIN	0.0221	0.141	–

Sequence	protein stability index (Saccharomyces cerevisiae [1])	protein stability index (Saccharomyces cerevisiae [3])	further results
FSMRWAFRYWVN	0.115	0.58	–
FSMRWTHRYWVN	0.0511	0.561	–
VRGAVGGWRLFG	0.333	0.694	–
SSLAASFWRVVG	0.16	0.692	–
AVVYLSCVACIN	0.0207	0.038	–
LKQLRQKMNHQN	0.212	0.663	–
ARWRVGLTRGAS	0.664	0.679	–
ARWRVGLWRGAD	0.694	0.672	–
SRGAVGGWRLVG	0.171	0.677	–
FSMRWTFRYWVD	0.46	0.467	–
LKILRQKMNWQN	0.286	0.661	–
KKHKKGQKQKIS	0.101	0.607	–
CTSCGYKFRVNN	0.282	0.687	–
QSLAASFWRVVG	0.13	0.698	–
RLIEPLPVQFLN	0.076	0.578	–
VRGAVGGWRCVG	0.222	0.658	–
PSLAASFWRVNG	0.167	0.702	–
LVVYDSCVACIN	0.368	0.468	–
FSMRWTFRYYVN	0.0506	0.482	–
PDKRNHHIKLLN	0.111	0.665	–
CTSCGYKHRTNN	0.582	0.687	–
FSMRWTFRYHVN	0.035	0.472	–

Sequence	protein stability index (Saccharomyces cerevisiae [1])	protein stability index (Saccharomyces cerevisiae [3])	further results
VSLAASFWRVVG	0.102	0.676	–
RRGAVGGWRLVG	0.16	0.687	–
KKHKKQQKQKIN	0.0595	0.59	–
PSLAASFWRGVG	0.232	0.707	–
KLHKKGQKQKIN	0.0703	0.612	–
RLIQPLPPQFLN	0.132	0.521	–
APWRVGLWRGAS	0.512	0.701	–
PDKRNHLNKLLN	0.126	0.579	–
LVVYLSCVACINA	0.0212	0.0343	–
KKHKKGQLQKIN	0.121	0.628	–
LVVHLSCVACIN	0.0147	0.0251	–
KKHKKGQKQKIK	0.634	0.553	–
IVVYLSCVACIN	0.0176	0.0302	–
ARWRVGLWRGHS	0.602	0.691	–
LRWRVGLWRGAS	0.0917	0.682	–
SRWRVGLWRGAS	0.458	0.672	–
RLIQPLPVAFLN	0.0928	0.552	–
CKSCGYKFRTNN	0.276	0.697	–
ARWRLGLWRGAS	0.458	0.687	–
RLIQPLPVQHLN	0.1	0.564	–
LKILRQKMNHSN	0.231	0.674	–
FSMRWLFRYWVN	0.0905	0.573	–

Sequence	protein stability index (Saccharomyces cerevisiae [1])	protein stability index (Saccharomyces cerevisiae [3])	further results
KKHKKGQKQKIN	0.113 and 0.11	0.66 and 0.611	protein stability index (Saccharomyces cerevisiae [4]): 0.175 ± 0.039; protein stability index (Saccharomyces cerevisiae [5]; genetic background: cdc34-1, temperature: 37 C): 0.535 ± 0.036; protein stability index (Saccharomyces cerevisiae [5]; genetic background: cdc53-1, temperature: 37 C): 0.694 ± 0.011; protein stability index (Saccharomyces cerevisiae [5]; genetic background: das1 deletion, temperature: 30 C): 0.622 ± 0.04; protein stability index (Saccharomyces cerevisiae [5]; genetic background: das1 deletion, temperature: 37 C): 0.725 ± 0.021; protein stability index (Saccharomyces cerevisiae [5]; genetic background: doa10 deletion, temperature: 30 C): 0.0638 ± 0.032; protein stability index (Saccharomyces cerevisiae [5]; genetic background: wild type, temperature: 30 C): 0.0729 ± 0.029; protein stability index (Saccharomyces cerevisiae [5]; genetic background: wild type, temperature: 37 C): 0.149 ± 0.11
ARWNVGLWRGAS	0.322	0.662	–
LVVYLSGVACIN	0.181	0.264	–
PDKRNHLIKTLN	0.164	0.604	–
PSLAISFWRVVG	0.127	0.633	–
PSLAASFWRVVW	0.637	0.683	–
RAIQPLPVQFLN	0.121	0.674	–
FSMRWTFRYVVN	0.117	0.496	–
CVSCGYKFRTNN	0.243	0.705	–
PSLAASFWRVVGQ	0.649	0.705	–
PDIRNHLIKLLN	0.134	0.675	–
LKILRQIMNHQN	0.244	0.693	–
PSLAASFWRRVG	0.128	0.69	–
ARWRVGLWIGAS	0.367	0.572	–
FCMRWTFRYWVN	0.0388	0.481	–
KKHKKGQAQKIN	0.0853	0.605	–
LEVYLSCVACIN	0.0193	0.0737	–
VRGAVGGMRLVG	0.592	0.677	–
VRGHVGGWRLVG	0.131	0.672	–
LWILRQKMNHQN	0.124	0.695	–
KKHAKGQKQKIN	0.121	0.565	–
LVVYLPCVACIN	0.119	0.202	–

Sequence	protein stability index (Saccharomyces cerevisiae [1])	protein stability index (Saccharomyces cerevisiae [3])	further results
KKHKKGPKQKIN	0.175	0.603	–
ELIQPLPVQFLN	0.0675	0.612	–
VRGAQGGWRLVG	0.191	0.701	–
RLIQPLPVQFLS	0.156	0.606	–
LKSLRQKMNHQN	0.202	0.681	–
TSMRWTFRYWVN	0.0899	0.696	–
PDVRNHLIKLLN	0.119	0.613	–
VRGAVMGWRLVG	0.154	0.71	–
DSLAASFWRVVG	0.135	0.697	–
LKILRQYMNHQN	0.242	0.675	–
ARNRVGLWRGAS	0.606	0.693	–
FSMRWTFRYNVN	0.214	0.568	–
FSMRWTFRIWVN	0.0523	0.288	–
WTSCGYKFRTNN	0.173	0.699	–
LVVYLSCVQCIN	0.0151	0.0333	–
CTSCGYKFRTPN	0.689	0.71	–
GKHKKGQKQKIN	0.133	0.585	–
LSMRWTFRYWVN	0.0756	0.531	–
